From IntAct's records for PubMed 23892082

B1: TIP41-like protein (Homo sapiens), O75663 (parent)
chain: MMIHGFQSSHRDFCFGPWKLTASKTHIMKSADVEKLADELHMPSLPEMMFGDNVLRIQHGSGFGIEFNATDALRCVNNYQGMLKVACAEEWQESRTEGEHSKEVIKPYDWTYTTDYKGTLLGESLKLKVVPTTDHIDTEKLKAREQIKFFEEVLLFEDELHDHGVSSLSVKIRVMPSSFFLLLRFFLRIDGVLIRMNDTRLYHEADKTYMLREYTSRESKISSLMHVPPSLFTEPNEISQYLPIKEAVCEKLIFPERIDPNPADSQKSTQVE

Variants of: B1
Details: with pp2aa_rat Ppp2ca

| Variant | effect of a mutation on the interaction |
| --- | --- |
| MMIHGFQSSHRDFCFGPWKLTASKTHIMKSADVEKLADELHMPSLPEMMFGDNVLRIQHGSGFGIEFNATLALRCVNNYQGMLKVACAEEWQESRTEGEHSKEVIKPYDWTYTTDYKGTLLGESLKLKVVPTTDHIDTEKLKAREQIKFFEEVLLFEDELHDHGVSSLSVKIRVMPSSFFLLLRFFLRIDGVLIRMNDTRLYHEADKTYMLREYTSRESKISSLMHVPPSLFTEPNEISQYLPIKEAVCEKLIFPERIDPNPADSQKSTQVE [D71L] | disrupting interaction |
